The values that follow come from article doi:10.1101/2022.12.07.519454 (bioRxiv, 2022).

This assay has as its target T1, GST-tagged yeast Sin3 PAH2 protein (residues 402-473) (S. cerevisiae, UniProt P22579 402-473).
T1 sequence (looked up): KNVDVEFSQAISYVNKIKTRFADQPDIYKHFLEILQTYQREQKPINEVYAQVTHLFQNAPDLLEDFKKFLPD
Kind of assay: fluorescence polarisation. On the technique in general: Fluorescence polarisation rises when a labelled molecule tumbles more slowly, as on binding a larger partner.

B1: unlabeled Ume6 SID peptide (Ume6 residues 516-531) (peptide, UniProt P39001 516-531, looked up)
peptide: LDDDLGTAAAVLSNMR
For B1, half-maximal inhibition (IC50) required 53.3 ± 2.4 µM and the Ki (usually a dissociation constant, usually derived from enzyme kinetics or from competition with a known ligand) was 11.4 µM.
